In the DeepSol protein solubility set:

Test: soluble on expression in E. coli; label from the status in PepcDB or PDB records

Sequence | soluble on expression in E. coli
GPGSMSSKEELAALMASDGDFEKKISLLKKAVVTVTKQKKEVEARQTQLQGELSTATQQLAEAQRANAALQRKVKSLEAQQEQERSSGSAFGQNMLKGLSSIMGNSDSANRGGARGERGSAGDRLSLSPEDVERLISENEQLHRQIYAFKTKLEDVQHSSAKDTERLKSEVARLQRETQELRRSLEANTATGDRLRADYLTERALGDFCRHFFVATLLRPQQERESFLTGTTVEVRWPAKGPSSNSAAAAFSDSLPAVVSERVTLALQSAAGTVKTLLRGVSVLAVVLQEQLPSRERATVGDLECLRDRLSVFLEAHTAKKDSLMYLLEQLDSQLSAVQHADEEGGSAPVSADAFVEAQGNIVQLVLEWVGLLRTQLPLLVESCVAILPHGNSYTMYTAHVSAGTGDGAAEPRKTTTERGEFVEEVTRHGYATLASIEGSLTAMRMLVERSPTAYYRCYNNGNRGGALPEPPTTKETLNFTSSLEATQPPMDLSSLLALQQFWWEGCTSVRSLRASILALNSGLVNVAEACNKSEIRDALNYLCKCLEAIAAASEEMYGSPRLAPADADAAIAALVPDALAPRTPAHAPPSEASSWALRPRTAIATSSTLTAEGVRDTAYADKYEELLVALSAADRAAASYYTQMNYLYVEMAEKEDALQTALEAVAHLQQLIVAERAEAKHTRQALQSQISLLSTQLVEMAGAPAAQTPQ | not soluble
MGSDKIHHHHHHMPTRSTPTERQKRLGAELRKMRLAAGAPTEYAAGLLGIDRTRLSNMESGIRPFSPDRVRTLACNYSCTDDGYIEALVAMTSTKERGWWERHRGILPSGLLDIAELEWHATRVRTAQVMHAPGLLQTEDYARGVFTAVLPPLTRLEVELRVAHRMERQQVLERPSPLPYIAYVHEAVLRMPYGGTEATQQQLKHLCSQSERENIEVRVIPTSTGGFPGAGHALLYADGAVPQLDTVQLDSAHGPEFTHADAQLTKYRSHLNWMDGAAMTSAASRDLIRKIARDL | not soluble
MKEKEYLFSLDMKVRDYECDLQGVVNNSNYQRYMEHTRHEFWESLGDNFGQMHEKGLDAFVYKVTITFKQSLRSGDRFRSCLTCHKKGPKLIFMQDIIREDGVMAARGEVEVVAVQDGVLTRGEYFDVLMKDILSKTTKLEHHHHHH | soluble
LITMNYNSPTIGMHQNLTIILPEDVTFFDSSTTAKHLKSMLLLHGLSSDETTYIRYTSIERYANEHQLAIIMPNVDHSGYANMVYGHSYYDYILEIYEYVHQILPLSRKREDNFIAGHSMGGYGTIKFALTQSDKFAKAAPLSAVFEAQRFIDLDWTDFSPQSITGNNTQIKGTELDTYYLLDQAIDANVDIPELFIMCGKEDFLYHDNLQFIETLNKKGVSYKFEDGPGNHDYAYWDRAIKRAIEWFVQ | not soluble
MSAFASSDRAEKSGIALEAQQKIYEKYDKNLAGEILQWVQNVTGQSFDTQGDADNLVKVFQDGSLLCTLANSLKPGSVKKVNTSAMAFKKMENISFFLKFAEEYVQKSELFQTVDLYEGQDPNAVLICLASLARKSEKNFGRSGLGPKEAQGDRREWTDEQLKAGHNVIGLQMGSNKGATASGLNMGNTRHM | not soluble
MTKKVAIILANEFEDIEYSSPKEALENAGFNTVVIGDTANSEVVGKHGEKVTVDVGIAEAKPEDYDALLIPGGFSPDHLRGDTEGRYGTFAKYFTKNDVPTFAICHGPQILIDTDDLKGRTLTAVLNVRKDLSNAGAHVVDESVVVDNNIVTSRVPDDLDDFNREIVKQLQ | not soluble
MSKETGKMAEEPPGSSSSAKPVTSSKKPPPNDVTTTTNTTKTTNSNQQEDMYLNGNNPYYGGFYANNRYLFPSTSSQATCIGTSSEDSPPPPPPSANGSIHRKHHQNANHHQNSRHAISDTVAVAGDDLSNVPAAVVIQLEKANRTIASQTLEIERLKSYQNQNLETHLLKKQIHDLEKEVRSGRSRFLEQQELLAEMSREMDILLREKLEMQRNSQELEKKYKKAKFASRELAKILENDLCGTPTTSNLKNFESDDEFFEEKSLFEKSRALSRQQIPNDLLEKTRKIDFSEAKNAKNQDLIDKLIDENENLQISLNREQKMTSSLQDDLEKSRRMVIDRDEHIEELKMKLGKAETKASQCESDLTQTSSDLAMERLRCEVLTGELHEIDGIFRNTQSTIQAYADDNDRLEDQCRQAQRTILTLNSKL | not soluble
GHDEIGQLATTFNHLTRELEDAQAMTEGERRKLASVIAYMTDGVIATNRNGAIILLNSPALELLNVSRETALEMPITSLLGLQENYTFEDLVEQQDSMLLEIERDDELTVLRVNFSVIQREH | not soluble
